Measured values from patent publication US6989362.

Test system: phospho-Thr75 DARPP-32

purified catalytic subunit of cAMP-dependent protein kinase (PKA)
phosphorylation of Thr34 DARPP-32 by PKA in vitro: The ability of PKA to phosphorylate Thr34 DARPP-32 in vitro was virtually abolished by prior phosphorylation at Thr75
